Key:
[1] = target: Bovine cardiac actin, filamentous (F-actin) (bovine) (UniProt Q3ZC07)
[2] = target: Bovine cardiac actin, filamentous (F-actin) (bovine) (UniProt Q3ZC07); remark: listed apart in the source
[3] = target: Bovine cardiac actin, filamentous (F-actin) (bovine) (UniProt Q3ZC07); remark: listed apart in the source
[4] = target: Bovine cardiac actin, filamentous (F-actin) (bovine) (UniProt Q3ZC07); experiment: temperature dependence of light scattering; thermally induced dissociation of Tpm complexes with F-actin stabilized by phalloidin; light scattering at 90°, 350 nm, heating 1 °C/min; Tdiss is the temperature at which a 50% decrease in light scattering occurs; no troponin
[5] = target: Bovine cardiac actin, filamentous (F-actin) (bovine) (UniProt Q3ZC07); experiment: co-sedimentation; Tpm co-sedimented with F-actin at room temperature; apparent affinity; K50% is the Tpm concentration at which half of the actin becomes saturated; three measurements averaged; as described in refs 27, 28

C50 of LA myosin for the sliding velocity of thin filaments at saturated Ca2+ concentration, in vitro motility assay; thin filament with D219V Tpm [1] [µg/mL]	C50 of LA myosin for the sliding velocity of thin filaments at saturated Ca2+ concentration, in vitro motility assay; thin filament with WT Tpm [1] [µg/mL]	V0, sliding velocity at low Ca2+ concentration, in vitro motility assay; regulated thin filament of F-actin, D219V Tpm and troponin [2] [µm/s]	V0, sliding velocity at low Ca2+ concentration, in vitro motility assay; regulated thin filament of F-actin, WT Tpm and troponin [2] [µm/s]	Vmax, sliding velocity at saturated Ca2+ concentration, in vitro motility assay; regulated thin filament of F-actin, D219V Tpm and troponin [2] [µm/s]	Vmax, sliding velocity at saturated Ca2+ concentration, in vitro motility assay; regulated thin filament of F-actin, WT Tpm and troponin [2] [µm/s]	C50, myosin concentration at which the sliding velocity is half-maximal, in vitro motility assay; filament: F-actin alone [3] [µg/mL]	C50, myosin concentration at which the sliding velocity is half-maximal, in vitro motility assay; filament: F-actin with D219V Tpm [3] [µg/mL]	C50, myosin concentration at which the sliding velocity is half-maximal, in vitro motility assay; filament: F-actin with WT Tpm [3] [µg/mL]	Vmax, sliding velocity at saturated myosin concentration, in vitro motility assay; filament: F-actin alone [3] [µm/s]	Vmax, sliding velocity at saturated myosin concentration, in vitro motility assay; filament: F-actin with D219V Tpm [3] [µm/s]	Vmax, sliding velocity at saturated myosin concentration, in vitro motility assay; filament: F-actin with WT Tpm [3] [µm/s]	Tdiss [4] [°C]	K50% [5] [µM]	C50 of LV myosin for the sliding velocity of thin filaments at saturated Ca2+ concentration, in vitro motility assay; thin filament with D219V Tpm [1] [µg/mL]	C50 of LV myosin for the sliding velocity of thin filaments at saturated Ca2+ concentration, in vitro motility assay; thin filament with WT Tpm [1] [µg/mL]	Substance
47.2	45.3	1.42	0.39	8.45	7.17	18	43	55.4	3.26	3.32	1.25	–	–	–	–	Atrial myosin from the left atrium of the pig (from UniProt F1RRT2 1-197; F1SSF9 1-175) (complex)
–	–	–	–	–	–	–	–	–	–	–	–	45.3	2.64	–	–	Human Tpm1.1 D219V mutant (natural protein)
–	–	–	–	–	–	–	–	–	–	–	–	43.3	2.88	–	–	Human Tpm1.1 WT (cardiac tropomyosin 1.1) (natural protein)
–	–	0.81	0.24	4.22	3.73	20.1	26	54.9	2.88	2.93	1.5	–	–	25.9	30.1	Ventricular myosin from the left ventricle of the pig (from UniProt P79293 1-1935) (complex)

— paper PMC9820293
